Test results from the DeepSol protein solubility set.

assay: soluble on expression in E. coli; label from the status in PepcDB or PDB records

Row | Sequence | soluble on expression in E. coli
1 | QQEYMKVGKFSPESNRSRWLVTRGATMTTKDTTRNMTMNTNLGGYQVLEIFRKLETPEAVTAFEGLSIPEPGLEPRFCVREGEQEVPVTTRYTDEAFWQVFDFSFVAGKHYTEADARSNIAVAVITDRLARRFFGSSSEAVGRQALINGRKYTVCGVVRHVTPFCDFAYGDVWMPVFRLYEERVKNNLFSRFNVICLAKSPKDFDAIKEEVGALTAKCNSVQEKFNISFPGQPADQFTTMHRKFHRDDTEPLEYRRR | not soluble
2 | QRRQMEMQSVNLVHEALSNQRLELFAQRVMNLQSPESLMYFEILVRIRDAQGNYVSPAIFIPASERYNIAHWIDKQVINQALEWFEQRPDVVEKLGRCSINLSGQSMGNQEFIDFLFERLKNSTMPCEKICLEITETAAMGNLDQAIDFFTRAKSLGCMIALDDFGSGLSSFGYLKKLPVDIVKIDGLFVRDIDVNEMDRVMVRSINDLAKQLGKVTVAEFVENEQVMQHLIDLGVDYGQGYGIGHPKPLAELVENLSSL | not soluble
3 | QRSTFGTKHMVFRTDQLIDGIERNVRITSEEVNAALPVPLLDRQDPGAILISGSSYTEPSEALQTMREAMTQEKFSGSVEIPLGIVRALLDLGFTDEAASWLEDLVPRLGNEWRHQWYSGVTSLLLDDYLTAQQHFNEVYNILPGESAPKLARAAVCEMLLQEKGLESTALLDPAVTVAAADIKGEGMSNIWRELTSDPATLRFKAIYLYALVWRTNPTTVSSAFGLARQLAAENQIDLAVSTLDRVPQNSTHRRMAELTAILHLLGDLSEARLRRAARRLEAIPTNEPRFLQIQIAIMNAALQWLRTGGEAANDPIFEYPFTQRGLRNGLSATLRQLARSAPSSHRYALVDVANQVRPMTWF | not soluble
4 | QTPVYLDTSKPIEERVKDALSRMTLEEKVKMTHAQSKFSSPGVPRLGIPEVWATDGPHGIRPEVLWDEWDQAGWTNDSCIAYPALTCLSATWNPEMSYLYGKSIGEEARYRKKDILLGPGVNIYRTPLNGRNFEYMGEDPYLSSMMVVPYIKGVQENGVAACVKHYALNNQEFNRHTTNVHLSDRALYEIYLPAFKAAVQEGGAWAIMGAYNLYSFSEDTDSGKLYKTQHACHNKRLLQDILRKEWGFDGVVVSDWGGVHDTFQAISNGLDMEFGSWTNGLSAGTRNAYDNYYLAHPYLKLIQDGTVGTKELDEKVSNILRLIFRTSMNPH | not soluble
5 | QTSGFSVTSGPMDVDVVTSIPFAMVDEINESSPAAEGGLQLGDQVLKFGNVEGGDNLLQRLAAEAQSNQGQAVSVQVMRQ | soluble
6 | QVPENNGYAGDKPLKTYIHDTVKGDLYYTAGSSYYSGKAYPGDTYKVNHNFDLPEGATIKLARLYNYWTWSSEGMEGRNPEMKLSFDGQELEPDREYSDRKGWGSYDYPSGTWAYDVSSCITGSGTFTTEIENTGPDASCVCIEGVGLLIVYEDPDGRNIEYWINEGADELNSQMDENGSPLYYTAPNQTICEMLRPALQFPIRSATLWTITQSGNWENNTLIVNDKKFTGICDGKPYPDLEIDKRNVTDCLKAGENIILFQASGDYVISSGSFLVVEKDLLAEESKSSTEEASEKSEETGSTPETSGTESKKAPGFGFVFAPALLTGRKLVSGLRDK | not soluble
7 | QVQLVESGGGSVQAGGSLRLSCAASGFTYSRKYMGWFRQAPGKEREGVAAIFIDNGNTIYADSVQGRFTISQDNAKNTVYLQMNSLKPEDTAMYYCAASSRWMDYSALTAKAYNSWGQGTQVTVSSRGRHHHHHH | soluble
8 | QVSLRESGGGLVQPGRSLRLSCTASGFTFRHHGMTWVRQAPGKGLEWVASLSGSGTKTHFADSVKGRFTISRDNSNNTLYLQMDNVRDEDTAIYYCAKAKRVGATGYFDLWGRGTLVTVSSASTKGPSVFPLAPSSKSTSGGTAALGCLVKDYFPEPVTVSWNSGALTSGVHTFPAVLQSSGLYSLSSVVTVPSSSLGTQTYICNVNHKPSNTKVDKKAEP | soluble
9 | QYYDYDFPLSIYGQSSPNCAPECNCPESYPSAMYCDELKLKSVPMVPPGIKYLYLRNNQIDHIDEKAFENVTDLQWLILDHNLLENSKIKGRVFSKLKQLKKLHINHNNLTESVGPLPKSLEDLQLTHNKITKLGSFEGLVNLTFIHLQHNRLKEDAVSAAFKGLKSLEYLDLSFNQIARLPSGLPVSLLTLYLDNNKISNIPDEYFKRFNALQYLRLSHNELADSGIPGNSFNVSSLVELDLSYNKLKNIPTVNENLENYYLEVNQLEKFDIKSFCKILGPLSYSKIKHLRLDGNRISETSLPPDMYECLRVANEVTLN | not soluble
10 | RADLQYLLNHPDPTEYKEKPLPYPFLTHWLHDIQEQTISKRLDESAGSAGEVSFIFVPCYLNRKDGIFGLGYYDLLIGMDLTVFPSYYEPWGYTPLES | not soluble
11 | RAIGQIRSADGGRTVDVDLAQPLHDWRVLFNNLLPSHVLRGGDSDFSTVLADGIPASAGRYSFAGVDRQRGIVTLNRNDRFWGEKPATVENIKFREVTDIAQGRELLRTGQIKFLDITPTEVAREAFELMPNTQVRTTTTSLNLQLIANTHLTLEQRADLQSLIDVHTVARIAMGRSTDLGVGDQPYEPHADHLMSLGRPVRIGVDPSDPEAQMAARVLSDVLARKSVKTQLVETDTTDLIGSK | not soluble
12 | RDRSTIARIQFRLPDGSSFTNQFPSDAPLEEARQFAAQTVGNTYGNFSLATMFPRREFTREDYKRRLLDLELAPSASVVLLPAGRPATSIVHSSSGDILMID | soluble
13 | REHDFDDLKFEHFLASAAGAFPAFLEVAEKRIIGEGVLRAVKESMRWHRAENVHFGAFLLLVPLISSWDAGGMVDIAEAARNRLRRTDFRDSLSVLEAFRLSNARVVEAGELNLKDRKTEEEIAQKKINLYEWMKMAPEENLIARELVDGFKISIEGAKFLLSFGNSGKAVVELYYHLLSKFPDPLVIAKMGREYAEKITEWAEKARTEEERKELDEKLLKDGANPGTIADLTASSIFLALAEGWR | soluble
14 | RGFAKIRDERARRDKIHNLIKRKLDPTKRFSSKQQRQLDRLTRESNLKPSELKETIREEVVEELAGAADGDDVDAVIDEAAGITTTYEPIEFEDTTVSVEDTSLGLPSHARPMSELEDLTTFEEDIAEEAATNTPADKPAAKH | not soluble
15 | RGSGWFAGFPVYSWFFGRDGLWMALAANMVGLAGLTYEHTNMLLKYSDDGRIPHEIGLADDGDQGYTIGETKFNTMYMSIDSSPLWLLASASMENWDRSRFEERHLKKVFDFIASCDTDGDGLIENDFRRGLIGWPETWANIRNGKTVDVNALWIEVLRIFGYRFGYDEYQKIRDRYMSTFFAGANSVDFVDMEYHEIRSAMQFVPGIFMRNEAIRSRIKDLSAGMMTPWGIRSMSVYDPMYDGGYHTGTVWPLMTGWFVIAAYKNGLPDLAFNQMRTFVDLAFSADDPGRINETYDAMMPQPTGQFAQGWSSSMLLLSVLQGMLNIDPLS | not soluble
16 | RIGIVVAAHGNSTASSMVQVVSQLLNVDNLKAVDMPLDMPPKEALRKIVEAVGEVNEENGVLLLVDMGSLSTFSEEIVRQTGIDVRTVDMVTTPIVLEAARKTALIDTQLETLHESLKNFHGYADIRQSETKQ | soluble
17 | RILDIDPVAQTAVVEPGVVCDALRDAAAEFGLTYGPDPSTHSRCTIGGMVANNACGSHSVAFGTAAENLVDVTLMLSDGREVTVTKDGCDDAEINQKLTDLASKNQDLISKELGRFPRQVSGYGLHYLAHDMAKAMAGTEGTIGIITRLTVKLVPTP | not soluble
18 | RIPVVGITGSKGMTTIARFVASLLTLSGRRTGLACSSGLYLDHRKIDHGNCANHKSARRILMNRTVEAAVFENGFDTMLEEGLPYDSCQVGIVTRIEPALHFAHQWIDTSEQVFKVLRTQVDVVSPTGGKREGDILPEIILPTGAAILNAQDPMLVQMADLCQGEVIYISCDPTLPVISVHRQEGTGPTRGKRAVTVRNWEILLIDGTAETILIRLDELQAKTGNHPVETAHLLAGVGAGWALGMSPDLIRTGLITFLQHQEKQSIVYQTF | not soluble
19 | RIQKLREATDKVASGDYDIHLENSYGDEIGVLASDFNIMAKKLKQSRDEIERLEKRRRQFIADVSHELKTPLTTINGLVEGLNSHTIPEDKKDKCFSLISEETKRMLRLVKENLDYEKIRSQQITLNKLDVPLIEVFEIVKEHLQQQAEEKQNKLMIQVEDHVIVHADYDRFIQILVNITKNSIQFTQNGDIWLRGMEGYKETIIEIEDTGIGIPKEDIEHIWERFYKADISRTNTAYGEYGLGLSIVRQLVEMHQGTVEIKSE | not soluble
20 | RKEDHARLRALNGLLYKALTDLLCTPEVSQELYDLNVELSKVSLTPDFSACRAYWKTTLSAEQNAHMEAVLQRSAAHMRHLLMSQQTLRNVPPIVFVQDKGNAALAELDQLLAVAD | soluble
21 | RLVDESALEEFLTREIGPAETFDVARHEQGHSNETLFVTWGDRELVVRRPPPGQTAETAHDVLREYRVIDALQDTAVPVPPTVTACDDQTIIGSDFYVMARVEGTVIRDDEPARFGSDDARAAVGTELVDTLAAIHEVDPTAVGLSDLGRADGYAKRQVARWGKQLAWAFERTAESRTIPELERVGSWLQDECPDDHPKTLVHGDYKLDNVMFGPGDDPELAAVFDWEMATLGDPRADLGWLLSYWRD | not soluble
22 | RRAELNTNETDESEKVIEGYFAVFNSETELFPGAFEEILPGAFDNTLENDVRALINHDTALVLGRNVSKTLSLRVDDKGLWGQIKINPLDSDAINLYERVKRGDVSQCSFGFNIIKEQEEWRDDGSVKWSLEEVELHEVSVCTFPAY | not soluble
23 | RRVADEIVISHPELADEVDTVCNKIQAGKPMPESLRELVVRTGLEELMGLVSMLSHASRIGGSLVNSLREYTEDYRDKRQQAAEEIAAKIPVK | not soluble
24 | RSAFSKIESEEYNSLKSSTIQTIGTSDGGSGIGYIESGDYLVFNKINFGNGANSFKARVASGADTPTNIQLRLGSPTGTLIGTLTVASTGGWNNYEEKSCSITNTTGQHDLYLVFSGPVNIDYFIFDSNGVNP | soluble
25 | RSEYVAPRSVWEARLAQVWEQVLNVPQVGALDDFFALGGHSLRAMRVLSSMHNEYQVDIPLRILFEKPTIQELAAFIEETAKGNVFSIEPVQKQAYYPVSSAQKRMYILDQFEGVGISYNMPSTMLIEGKLERTRVEAAFQRLIARHESLRTSFAVVNGEPVQNIHEDVPFALAYSEVTEEEARELVSSLVQPFDLEVAPLIRVSLLKIGEDRYVLFTDMHHSISDGVSSGILLAEWVQLYQGDVLPELRIQYKDFAVWQQEFSQSAAFHKQEAYWLQTFADDIPVLNLPTDFTRPSTQSFAGDQCTIGAGKALTEGLHQLAQATGTTLYMVLLAAYNVLLAKYAGQEDIIVGTPITGRSHADLEPIVGMFVNTLAMRNKPQREKTFSEFLQEVKQNALDAYGHQDYPFEELVEKLAIARDLSRNPLFDTVFTFQNSTEEVMTLPECTLAPFMTDETGQHAKFDLTFSATEEREEMTIGVEYSTSLFTRETMERFSRHFLTIAASIVQNPHIRLGEIDML | soluble
26 | RSIRLPETIDLGALYLSMKDTEKGIKELNLEKDKKIFNHCFTGNCVIDWLVSNQSVRNRQEGLMIASSLLNEGYLQPAGDMSKSAVDGTAENPFLDNPDAFYYFPDSGFFCEEN | soluble
27 | RTDTIMVLHMPRTGEPTLLSIPRDSYVNVPGWGMDKANAAFTVGGPELLTQTVEEATGLRIDHYAEIGMGGLANMVDAVGGVEMCPAEPMYDPLANLDIQAGCQEFDGAAALGYVRTRATALGDLDRVVRQREFFSALLSTATS | not soluble
